From the RNAGym collection of RNA variant scans (doi:10.7554/elife.80360)

B1: HDV Ribozyme (parent)
chain: GGCCGGCAUGGUCCCAGCCUCCUCGCUGGCGCCGGCUGGGCAACAUUCCGAGGGGACCGUCCCCUCGGUAAUGGCGAAUGGGACCCA

Variants of: B1
Assay: self-cleavage, relative activity (ratio to wild type); higher = more cleavage; co-transcriptional

In order of falling self-cleavage:
1. AACCGGCAUGGUCCCAGCCUCCUCGCUGGCGCCGGCUGGGCAACAUUCCGAGGGGACCGUCCCCUCGGUAAUGGCGAAUGGGACCCA [G1A G2A]  0.457
2. AGCCGGCAUGGUCCCAGCCUCCUCGCUGGCGCCGGCUGGGCAACAUUCCGAGGGGACCGUCCCCUGGGUAAUGGCGAAUGGGACCCA [G1A C66G]  0.308
3. AGCCGGCAUGGUCCCAGCCUCCUCGCUGGCGCCGGCUGGGCAACAUUCCGAGGGGACCGUCCCCUCGGUAUUGGCGAAUGGGACCCA [G1A A71U]  0.256
4. AGCUGGCAUGGUCCCAGCCUCCUCGCUGGCGCCGGCUGGGCAACAUUCCGAGGGGACCGUCCCCUCGGUAAUGGCGAAUGGGACCCA [G1A C4U]  0.252
5. AGCCGGCAUGGUCCCAGCCUCCUCGCUGGCGCCGGCUGGGCAACAUUCCGAGGGGACCGUCCGCUCGGUAAUGGCGAAUGGGACCCA [G1A C63G]  0.249
6. AGCCGGCAUGGUCCCAGCCUCCUCGCUGGCGCCGGCUGGGCAACUUUCCGAGGGGACCGUCCCCUCGGUAAUGGCGAAUGGGACCCA [G1A A45U]  0.208
7. AGCCGGCAUGGUCCCAGCCUCCUCGCUGGCGCCGGCUGGGCAACAUUCCGAGGGGACCGUCCCCUCGGUAAUGGCGAAUGGGACCGA [G1A C86G]  0.185
8. AGCCGGCGUGGUCCCAGCCUCCUCGCUGGCGCCGGCUGGGCAACAUUCCGAGGGGACCGUCCCCUCGGUAAUGGCGAAUGGGACCCA [G1A A8G]  0.166
9. AGCCGGCAUGGUCCCAGCCUCCUCGCUGGCGCCGGCUGGGCAACAUUCCGAGGGGACCGUCCCCUCGGUAAUGGAGAAUGGGACCCA [G1A C75A]  0.161
10. AGCCGGCAUGGUCCCAGCCUCCUCGCUGGCGCCGGCUGGGCAACAUUCCGAGGGGACUGUCCCCUCGGUAAUGGCGAAUGGGACCCA [G1A C58U]  0.158
11. AGCCGGCAUGGUCCCAGCCUCCUCGCUGGCGCCGGCUGGGCAACAUUCCGAGGGGACCGUCCCCUCGGUACUGGCGAAUGGGACCCA [G1A A71C]  0.145
12. AGCCGGCAUGGUCCCAGCCUCCUCGCUGGCGCCGGCUGGGCAACAUUCCGAGGGGACCGUCCCCUCGGUAAUGGCGAAUGGGACCCA [G1A]  0.143
13. AGCCGGCAUGGUCCCAGCCUCCUCGCUGGCGCCGGCUGGGCUACAUUCCGAGGGGACCGUCCCCUCGGUAAUGGCGAAUGGGACCCA [G1A A42U]  0.123
14. AGCGGGCAUGGUCCCAGCCUCCUCGCUGGCGCCGGCUGGGCAACAUUCCGAGGGGACCGUCCCCUCGGUAAUGGCGAAUGGGACCCA [G1A C4G]  0.123
15. AGCCGGCAUGGUCCCAGCCUCCUCGCUGGCGCCGGCUGGGCAACAUUCCGAGGGGACCGUCCCCUCGGUAAUGGGGAAUGGGACCCA [G1A C75G]  0.108
16. AGCCGGCAUGGUCCCAGCCUCGUCGCUGGCGCCGGCUGGGCAACAUUCCGAGGGGACCGUCCCCUCGGUAAUGGCGAAUGGGACCCA [G1A C22G]  0.0978
17. AGCCGGCAUGGUCCCAGCCUCCUCGCUGGCGCCGGCUGGGCAACAUUCCGAGGGGACCGUCCCGUCGGUAAUGGCGAAUGGGACCCA [G1A C64G]  0.095
18. AGCCGGCAUGGUCCAAGCCUCCUCGCUGGCGCCGGCUGGGCAACAUUCCGAGGGGACCGUCCCCUCGGUAAUGGCGAAUGGGACCCA [G1A C15A]  0.0923
19. AGCCGGCAUGGUCCCAGCCUCCUCGCUGGAGCCGGCUGGGCAACAUUCCGAGGGGACCGUCCCCUCGGUAAUGGCGAAUGGGACCCA [G1A C30A]  0.0875
20. AGCCGGCAUGGUCCCAGCGUCCUCGCUGGCGCCGGCUGGGCAACAUUCCGAGGGGACCGUCCCCUCGGUAAUGGCGAAUGGGACCCA [G1A C19G]  0.0875
21. AGCCGGCAUGGUCCCAGCCUCCUCGCUGGCGCCGGCUGGGCAACAUUCCGAGGGGACCGUCCCCUCGGUAAUGGCGAAUGGGACACA [G1A C85A]  0.0852
22. AGCCGGCAUGGUCCCAGCCUCCUCGCUGGCGCCGGCUGGGCAACAUUCCGCGGGGACCGUCCCCUCGGUAAUGGCGAAUGGGACCCA [G1A A51C]  0.0831
23. AGCCGGCAUGGUCCCAGCCUCCUCGCUGGCGCCGGCUGGGCAACAUUCCGAGGGGACCGUCUCCUCGGUAAUGGCGAAUGGGACCCA [G1A C62U]  0.0791
24. AGCCAGCAUGGUCCCAGCCUCCUCGCUGGCGCCGGCUGGGCAACAUUCCGAGGGGACCGUCCCCUCGGUAAUGGCGAAUGGGACCCA [G1A G5A]  0.0755
25. AGCCGGCAUGGUCCUAGCCUCCUCGCUGGCGCCGGCUGGGCAACAUUCCGAGGGGACCGUCCCCUCGGUAAUGGCGAAUGGGACCCA [G1A C15U]  0.0665
26. AGCCGGCAUGGUCCCAGCCUCCUCGCUGGCGCCGGCUGGGCAACAUUCCGAGGGGACGGUCCCCUCGGUAAUGGCGAAUGGGACCCA [G1A C58G]  0.0665
27. AGCCGGCAUGGUCCCAGUCUCCUCGCUGGCGCCGGCUGGGCAACAUUCCGAGGGGACCGUCCCCUCGGUAAUGGCGAAUGGGACCCA [G1A C18U]  0.0475
28. AGCCGGUAUGGUCCCAGCCUCCUCGCUGGCGCCGGCUGGGCAACAUUCCGAGGGGACCGUCCCCUCGGUAAUGGCGAAUGGGACCCA [G1A C7U]  0.0475
29. AGCCGGCAUGGUCCCAGCCUCCUCGCUGGCGCCGGCUGGGCAAAAUUCCGAGGGGACCGUCCCCUCGGUAAUGGCGAAUGGGACCCA [G1A C44A]  0.0426
30. AGCCGGCAUGGUCCCAGCCUCCUCGCUGGCGCCGGCUGGGCCACAUUCCGAGGGGACCGUCCCCUCGGUAAUGGCGAAUGGGACCCA [G1A A42C]  0.0369
31. AGCCGGCAUGGUCCCAGGCUCCUCGCUGGCGCCGGCUGGGCAACAUUCCGAGGGGACCGUCCCCUCGGUAAUGGCGAAUGGGACCCA [G1A C18G]  0
32. AGCCGGCAUGGUCCCAGCCUCCUCGCUGGCGCCGGCUGGGCAACAUUACGAGGGGACCGUCCCCUCGGUAAUGGCGAAUGGGACCCA [G1A C48A]  0
